# Experimental data as given in patent US20240100176A1 (Eli Lilly, published 2024).
# Assays:
# Assay in all cases: capture ELISA: Ab1 on anti-human IgG Fc, His-tagged receptor at 0.2 µg/mL, anti-His HRP
# [1] = biological target: T1, hexahistidine tagged human IL-4Rα ECD E94R (human, UniProt P24394 26-232)
# T1 construct: not shown: hexahistidine tag
# Text: (§1) Example 2d. […] Briefly, thirty surface amino acid residue substitutions were introduced individually into hexahistidine tagged human IL-4Rα extra cellular domain (ECD) as follows: K2D, E6R, K22D, P26R, T31R, F41A, L42G, L43G, E45R, E52R, G56R, D66R, A71R, Q82G, K87D, E94R, H107A, D108R, P124R, D125R, D143R, R148D, L155R, R160D, S164R, S168R, Q181R, P192R, K195D, or H197G. Each mutant protein having a single amino acid residue substitution as described above was transiently expressed in CHO cells and purified using standard immobilized metal affinity chromatography techniques. […] The plates were then washed 3 times with PBST and the exemplified human IL-4Rα antibody was added to the wells at a final concentration of 1 μg/mL in PBS-casein and incubated for 1 hour at room temperature. The plates were washed 3 times with PBST, the IL-4Rα mutant proteins were serially diluted 5-fold from 1 μg/mL for 3 points. in PBS-casein and added to the plate at 50 μL/well and incubated for 1 hour at room temperature. The plates were washed 3 times with PBST and a 1000-fold dilution of anti-histidine tag antibody HRP conjugate (R&D Systems, Cat. #MAB050H) in PBS-casein was added and incubated for 45 minutes at room temperature. The plates were washed 3 times, TMB substrate (Pierce, Cat. #34028) was added per manufacturer instructions, the reaction was quenched with H₂SO₄, and absorbance was read at 450 nm on an ELISA plate reader.
# [2] = biological target: T2, hexahistidine tagged human IL-4Rα ECD K195D (human, UniProt P24394 26-232)
# T2 construct: not shown: hexahistidine tag
# Text: as §1
# [3] = biological target: T3, hexahistidine tagged human IL-4Rα ECD E45R (human, UniProt P24394 26-232)
# T3 construct: not shown: hexahistidine tag
# Text: as §1
# [4] = biological target: T4, hexahistidine tagged human IL-4Rα ECD T31R (human, UniProt P24394 26-232)
# T4 construct: not shown: hexahistidine tag
# Text: as §1
# [5] = biological target: T5, hexahistidine tagged human IL-4Rα ECD P124R (human, UniProt P24394 26-232)
# T5 construct: not shown: hexahistidine tag
# Text: as §1
# [6] = biological target: T6, hexahistidine tagged human IL-4Rα ECD K2D (human, UniProt P24394 26-232)
# T6 construct: not shown: hexahistidine tag
# Text: as §1
# [7] = biological target: T7, hexahistidine tagged human IL-4Rα ECD K87D (human, UniProt P24394 26-232)
# T7 construct: not shown: hexahistidine tag
# Text: as §1
# [8] = biological target: T8, hexahistidine tagged human IL-4Rα ECD S168R (human, UniProt P24394 26-232)
# T8 construct: not shown: hexahistidine tag
# Text: as §1
# [9] = biological target: T9, hexahistidine tagged human IL-4Rα ECD G56R (human, UniProt P24394 26-232)
# T9 construct: not shown: hexahistidine tag
# Text: as §1
# [10] = biological target: T10, hexahistidine tagged human IL-4Rα ECD L155R (human, UniProt P24394 26-232)
# T10 construct: not shown: hexahistidine tag
# Text: as §1
# [11] = biological target: T11, hexahistidine tagged human IL-4Rα ECD L43G (human, UniProt P24394 26-232)
# T11 construct: not shown: hexahistidine tag
# Text: as §1
# [12] = biological target: T12, hexahistidine tagged human IL-4Rα ECD H197G (human, UniProt P24394 26-232)
# T12 construct: not shown: hexahistidine tag
# Text: as §1
# [13] = biological target: T13, hexahistidine tagged human IL-4Rα ECD D125R (human, UniProt P24394 26-232)
# T13 construct: not shown: hexahistidine tag
# Text: as §1
# [14] = biological target: T14, hexahistidine tagged human IL-4Rα ECD L42G (human, UniProt P24394 26-232)
# T14 construct: not shown: hexahistidine tag
# Text: as §1
# [15] = biological target: T15, hexahistidine tagged human IL-4Rα ECD Q82G (human, UniProt P24394 26-232)
# T15 construct: not shown: hexahistidine tag
# Text: as §1
# [16] = biological target: T16, hexahistidine tagged human IL-4Rα ECD K22D (human, UniProt P24394 26-232)
# T16 construct: not shown: hexahistidine tag
# Text: as §1
# [17] = biological target: T17, hexahistidine tagged human IL-4Rα ECD P26R (human, UniProt P24394 26-232)
# T17 construct: not shown: hexahistidine tag
# Text: as §1
# [18] = biological target: T18, hexahistidine tagged human IL-4Rα ECD R148D (human, UniProt P24394 26-232)
# T18 construct: not shown: hexahistidine tag
# Text: as §1
# T1 sequence (P24394 26-232 E119R): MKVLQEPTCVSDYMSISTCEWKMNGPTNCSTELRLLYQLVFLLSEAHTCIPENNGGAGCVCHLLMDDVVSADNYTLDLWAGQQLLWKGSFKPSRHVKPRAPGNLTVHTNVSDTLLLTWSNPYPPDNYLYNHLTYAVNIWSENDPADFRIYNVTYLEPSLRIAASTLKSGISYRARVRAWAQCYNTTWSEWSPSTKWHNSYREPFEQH
# T14 sequence (P24394 26-232 L67G): as the sequence (P24394 26-232 E119R) above, with L42G, R94E counted along it
# T10 sequence (P24394 26-232 L180R): as the sequence (P24394 26-232 E119R) above, with R94E, L155R counted along it
# T16 sequence (P24394 26-232 K47D): as the sequence (P24394 26-232 E119R) above, with K22D, R94E counted along it
# T12 sequence (P24394 26-232 H222G): as the sequence (P24394 26-232 E119R) above, with R94E, H197G counted along it
# T13 sequence (P24394 26-232 D150R): as the sequence (P24394 26-232 E119R) above, with R94E, D125R counted along it
# T8 sequence (P24394 26-232 S193R): as the sequence (P24394 26-232 E119R) above, with R94E, S168R counted along it
# T17 sequence (P24394 26-232 P51R): as the sequence (P24394 26-232 E119R) above, with P26R, R94E counted along it
# T18 sequence (P24394 26-232 R173D): as the sequence (P24394 26-232 E119R) above, with R94E, R148D counted along it
# T9 sequence (P24394 26-232 G81R): as the sequence (P24394 26-232 E119R) above, with G56R, R94E counted along it
# T7 sequence (P24394 26-232 K112D): as the sequence (P24394 26-232 E119R) above, with K87D, R94E counted along it
# T4 sequence (P24394 26-232 T56R): as the sequence (P24394 26-232 E119R) above, with T31R, R94E counted along it
# T6 sequence (P24394 other isoform, or with tags, fused parts or gaps): as the sequence (P24394 26-232 E119R) above, with K2D, R94E counted along it
# T5 sequence (P24394 26-232 P149R): as the sequence (P24394 26-232 E119R) above, with R94E, P124R counted along it
# T3 sequence (P24394 26-232 E70R): as the sequence (P24394 26-232 E119R) above, with E45R, R94E counted along it
# T11 sequence (P24394 26-232 L68G): as the sequence (P24394 26-232 E119R) above, with L43G, R94E counted along it
# T2 sequence (P24394 26-232 K220D): as the sequence (P24394 26-232 E119R) above, with R94E, K195D counted along it
# T15 sequence (P24394 26-232 Q107G): as the sequence (P24394 26-232 E119R) above, with Q82G, R94E counted along it
binder,measurement,setting,value
"anti-human IL-4Rα antibody Ab1 (antibody, human IgG4 S228P, kappa, human kappa light chain; also called anti-human IL-4Rα Ab1; unconjugated Ab1) heavy: QVQLVESGGGLVQPGGSLRLSCVASGFTFSHSSMNWVRQAPGKGLEWVSYISRATGAVYYADSVKGRFTISRDNAKNSLYLQMNSLRDEDTAVYYCAREPVFDYWGQGTLVTVSSASTKGPCVFPLAPCSRSTSESTAALGCLVKDYFPEPVTVSWNSGALTSGVHTFPAVLQSSGLYSLSSVVTVPSSSLGTKTYTCNVDHKPSNTKVDKRVESKYGPPCPPCPAPEFLGGPSVFLFPPKPKDTLMISRTPEVTCVVVDVSQEDPEVKFNWYVDGVEVHNAKTKPREEQFNSTYRVVSVLTVLHQDWLNGKEYKCKVSNKGLPSSIEKTISKAKGQPREPQVYTLPPSREEMTKNQVSLTCLVKGFYPSDICVEWESNGQPENNYKTTPPVLDSDGSFFLYSRLTVDKSRWQQGNVFSCSVMHEALHNHYTQKSLSLSLG light: DIQMTQSPSAMSASVGDRVTITCRASQDISNYLAWFQQKPGKVPTRLIYAASSLQSGVPSRFSGSGSGTEFTLTISSLQPEDFATYYCLQWSSYPRTFGQGTKVEIKRTVAAPSVFIFPPSDEQLKSGTASVVCLLNNFYPREAKVQWKVDNALQSGNSQESVTEQDSKDSTYSLSSTLTLSKADYEKHKVYACEVTHQGLSSPVTKSFNRGEC",ELISA (OD450),[1],1.64 OD450
same,ELISA (OD450),[2],1.65 OD450
same,ELISA (OD450),[3],1.86 OD450
same,ELISA (OD450),[4],1.49 OD450
same,ELISA (OD450),[5],1.7 OD450
same,ELISA (OD450),[6],1.61 OD450
same,ELISA (OD450),[7],1.56 OD450
same,ELISA (OD450),[8],1.71 OD450
same,ELISA (OD450),[9],1.7 OD450
same,ELISA (OD450),[10],1.68 OD450
same,ELISA (OD450),[11],1.7 OD450
same,ELISA (OD450),[12],1.6 OD450
same,ELISA (OD450),[13],1.61 OD450
same,ELISA (OD450),[14],1.48 OD450
same,ELISA (OD450),[15],1.53 OD450
same,ELISA (OD450),[16],1.3 OD450
same,ELISA (OD450),[17],1.52 OD450
same,ELISA (OD450),[18],1.6 OD450
